Test results as given in the RNAGym collection of RNA variant scans (doi:10.7554/elife.80360).

B1: HDV Ribozyme (parent)
chain: GGCCGGCAUGGUCCCAGCCUCCUCGCUGGCGCCGGCUGGGCAACAUUCCGAGGGGACCGUCCCCUCGGUAAUGGCGAAUGGGACCCA

Variants of: B1
Test: self-cleavage, relative activity (ratio to wild type); higher = more cleavage; co-transcriptional

In order of falling self-cleavage:
1. C26U U37C  1.34
2. U47G C64U  1.28
3. U23C G76A  1.22
4. A51G A70G  1.16
5. C49U U69G  1.16
6. A16U U60G  1.15
7. C66U C86U  1.15
8. G55A A71G  1.1
9. A56G C61U  1.08
10. A16G C49A  1.08
11. C49U C57A  1.07
12. U65C U69C  1.02
13. G50U G67U  1.02
14. C14A C61G  0.997
15. G55U C62A  0.973
16. C24U A56C  0.973
17. A56U C63A  0.969
18. U65G C86U  0.966
19. U9C U27G  0.914
20. C48G G67A  0.91
21. C24A C61A  0.906
22. C44U C66G  0.895
23. A45C U72A  0.89
24. G53C G76A  0.882
25. C15U C61U  0.882
26. G10C C63A  0.88
27. C7A G76U  0.849
28. C26U C44G  0.831
29. G10C G54A  0.831
30. C15U C58U  0.811
31. U27C  0.8
32. C61U G67C  0.78
33. C58G U79G  0.776
34. C22U C63U  0.76
35. G17A C66A  0.748
36. A70U C85U  0.746
37. C3U U23G  0.743
38. U46C U47C  0.743
39. C36U G52U  0.72
40. U46A G67A  0.703
41. G55U U72C  0.703
42. C44G C64U  0.686
43. C63A C64A  0.665
44. A42G C58A  0.655
45. C22U G55C  0.642
46. C7A A56U  0.617
47. A56C C63G  0.608
48. G10C C84G  0.578
49. C64U U72A  0.567
50. G55A G74U  0.541
51. G6U C66G  0.54
52. C63G G74U  0.529
53. C63A A71C  0.525
54. C61U G82U  0.518
55. C3U G10A  0.513
56. G67C A77G  0.508
57. A8U C84U  0.506
58. A43G G50A  0.502
59. C41G G68C  0.483
60. G31A G68A  0.481
61. G59A G81A  0.472
62. G59A G82U  0.467
63. C64A A77U  0.449
64. G80A A87G  0.424
65. U79G C85A  0.415
66. C7A G50C  0.415
67. C14U G80U  0.4
68. G5U G55U  0.394
69. C18U U27G  0.391
70. U12C C63U  0.389
71. C3A A71G  0.38
72. C4G G67C  0.374
73. A16C C22U  0.369
74. C63U G81U  0.361
75. C61A A83C  0.342
76. G68C A83C  0.332
77. U72G U79G  0.332
78. U60G G73C  0.323
79. G38U C58U  0.295
80. G40C A51G  0.288
81. U12G C33U  0.277
82. U37G C49U  0.268
83. G6U C41U  0.259
84. U79A C84G  0.256
85. U79A A83U  0.256
86. G80U A83C  0.254
87. G68U G80C  0.253
88. U9G G80C  0.246
89. U37A G54U  0.245
90. C18G C84G  0.237
91. A43C C84G  0.237
92. G29A C49U  0.237
93. C24A C30A  0.237
94. C30G C63A  0.229
95. C61G G74C  0.225
96. G50A G81C  0.225
97. G31U G74C  0.223
98. G1U C26U  0.222
99. G59C C75A  0.219
100. G28U U69G  0.208
101. C21A G28U  0.196
102. G2A C66U  0.192
103. C63G A78U  0.185
104. C13A C61U  0.185
105. G28U G68A  0.182
106. C24G G53A  0.18
107. G25A G39A  0.172
108. C24G G55A  0.166
109. C18A C24A  0.163
110. U37G C75A  0.156
111. G5C C66G  0.151
112. A71G G82C  0.151
113. U20C G28A  0.147
114. G2C C49G  0.145
115. C13U C19A  0.138
116. G29C C75G  0.131
117. G1C G54A  0.131
118. G74U C75G  0.13
119. A78G A83C  0.128
120. C32G C36A  0.125
121. C14A G17C  0.123
122. G74A G81U  0.12
123. U12C U47G  0.119
124. G34C G82C  0.117
125. U12C G73C  0.116
126. C26U C75U  0.113
127. G28A C30U  0.113
128. G34U G39C  0.111
129. G29A C61G  0.107
130. U37A C62U  0.104
131. U20G A43G  0.104
132. U37A G54A  0.104
133. C21U C49G  0.102
134. C22U G29U  0.101
135. C4G G28C  0.101
136. C32G U46C  0.0978
137. U27A G34C  0.0978
138. C4G C7G  0.0875
139. G5A U47G  0.0875
140. G1C U23C  0.0831
141. C13A G25U  0.0791
142. U20A C66U  0.0773
143. G29C G67U  0.0773
144. G2C U9G  0.0723
145. G5U U37A  0.0723
146. G53C C75G  0.0627
147. C19A C75U  0.058
148. C19A G80U  0.0513
149. U79A G82C  0.0504
150. G25U U60C  0.0475
151. C30G G80C  0.0462
152. G29C A83U  0.0462
153. G25A A42C  0.0462
154. G2U U23A  0.0391
155. G17U G38U  0.0369
156. C24A G29U  0.0369
157. C30G A71G  0.0339
158. G2U U23G  0.0287
159. C21A C33A  0.026
160. C18G G82C  0
161. C18G C48U  0
162. G17U C21G  0
163. U20C U47G  0
164. A8G G29U  0
165. G2U C75A  0
166. G17C C75U  0
167. G38A U46A  0
